According to patent US20040241820A1:

Target: Savinase® (subtilisin 309) (UniProt P29600)
Test: cell-based or functional assay

Sequence of UniProt P29600 (P29600 whole entry): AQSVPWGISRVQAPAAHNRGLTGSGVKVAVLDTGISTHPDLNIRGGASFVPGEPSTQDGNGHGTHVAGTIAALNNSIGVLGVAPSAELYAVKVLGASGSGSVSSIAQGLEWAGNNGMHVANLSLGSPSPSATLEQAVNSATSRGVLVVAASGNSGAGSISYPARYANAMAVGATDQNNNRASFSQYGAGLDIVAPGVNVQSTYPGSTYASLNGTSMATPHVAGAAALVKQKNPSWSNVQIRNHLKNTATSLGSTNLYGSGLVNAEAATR

Substance: trypsin inhibitor type IV-0 (Ovo-inhibitor), Sigma T-1886 (from UniProt P10184 69-517)
- RA (%) (Residual Activity in the Ovo-inhibition Assay; hydrolysis of Suc-Ala-Ala-Pro-Phe-pNA with versus without inhibitor): < 5%
